System: Escherichia coli TOP10
Assay: shrunken log2 fold change of peptide-encoding DNA abundance (4.5 h post-induction vs induction); higher = less antimicrobial activity (less host growth inhibition)
Conditions: time post-induction: 4.5 h; library: site-saturation at positions 5, 18, 19, 20
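Note: peptides expressed intracellularly from a pBAD plasmid library in pooled LB shake-flask culture, induced with 0.3% L-arabinose, DNA abundance read by NGS, three biological replicates, DESeq2 with apeglm shrinkage.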

Row | Sequence | shrunken log2 fold change
1 | RRIRYRPPRLPRPRPRPLGCPRP | -0.198
2 | RRIRRRPPRLPRPRPRPDDSPRP | -0.0232
3 | RRIRYRPPRLPRPRPRPFSPPRP | -0.319
4 | RRIRDRPPRLPRPRPRPETPPRP | 0.904
5 | RRIRTRPPRLPRPRPRPMVRPRP | -0.0017
6 | RRIRGRPPRLPRPRPRPKFSPRP | 0.392
7 | RRIRSRPPRLPRPRPRPLIRPRP | -0.196
8 | RRIRYRPPRLPRPRPRPNMPPRP | -0.304
9 | RRIRPRPPRLPRPRPRPLEDPRP | 0.492
10 | RRIRWRPPRLPRPRPRPAVEPRP | 0.497
11 | RRIRSRPPRLPRPRPRPEWHPRP | 0.0472
12 | RRIRKRPPRLPRPRPRPCWMPRP | 0.446
13 | RRIRVRPPRLPRPRPRPVSHPRP | 0.173
14 | RRIRKRPPRLPRPRPRPEFRPRP | 0.129
15 | RRIRFRPPRLPRPRPRPDHSPRP | -0.0664
16 | RRIRFRPPRLPRPRPRPPLMPRP | 0.154
17 | RRIRPRPPRLPRPRPRPTNDPRP | -0.00332
18 | RRIRMRPPRLPRPRPRPMLSPRP | 0.0117
19 | RRIRERPPRLPRPRPRPTPLPRP | 0.0281
20 | RRIRQRPPRLPRPRPRPDTEPRP | 0.0371
21 | RRIRFRPPRLPRPRPRPTKMPRP | 0.0196
22 | RRIRFRPPRLPRPRPRPKRNPRP | 0.203
23 | RRIRWRPPRLPRPRPRPKKKPRP | -0.139
24 | RRIRHRPPRLPRPRPRPACFPRP | -0.126
25 | RRIRSRPPRLPRPRPRPSDAPRP | 0.0409

Row | Sequence | shrunken log2 fold change
26 | RRIRLRPPRLPRPRPRPKFCPRP | -0.0573
27 | RRIRERPPRLPRPRPRPFNWPRP | 0.00763
28 | RRIRGRPPRLPRPRPRPPSSPRP | 0.703
29 | RRIRIRPPRLPRPRPRPFPAPRP | -0.299
30 | RRIRGRPPRLPRPRPRPVQYPRP | 0.118
31 | RRIRRRPPRLPRPRPRPPKEPRP | 0.0931
32 | RRIRLRPPRLPRPRPRPKCRPRP | 0.147
33 | RRIRFRPPRLPRPRPRPCTDPRP | -0.183
34 | RRIRMRPPRLPRPRPRPPYKPRP | -0.163
35 | RRIRIRPPRLPRPRPRPKNLPRP | -0.0922
36 | RRIRTRPPRLPRPRPRPGVTPRP | 0.276
37 | RRIRSRPPRLPRPRPRPAKNPRP | 0.157
38 | RRIRHRPPRLPRPRPRPIVPPRP | 0.0781
39 | RRIRWRPPRLPRPRPRPNHTPRP | -0.323
40 | RRIRPRPPRLPRPRPRPTNHPRP | -0.134
41 | RRIRRRPPRLPRPRPRPFAAPRP | 0.98
42 | RRIRFRPPRLPRPRPRPSLRPRP | -0.262
43 | RRIRHRPPRLPRPRPRPIGEPRP | -0.00286
44 | RRIRFRPPRLPRPRPRPTEQPRP | -0.0361
45 | RRIRARPPRLPRPRPRPNKQPRP | 0.165
46 | RRIRNRPPRLPRPRPRPHCFPRP | -0.641
47 | RRIRGRPPRLPRPRPRPTSWPRP | 0.782
48 | RRIRARPPRLPRPRPRPLFWPRP | 0.678
49 | RRIRARPPRLPRPRPRPNRLPRP | 0.0862
50 | RRIRVRPPRLPRPRPRPVGHPRP | -0.166

Row | Sequence | shrunken log2 fold change
51 | RRIRIRPPRLPRPRPRPICDPRP | -0.412
52 | RRIRGRPPRLPRPRPRPYTPPRP | -0.526
53 | RRIRERPPRLPRPRPRPLCMPRP | -0.592
54 | RRIRPRPPRLPRPRPRPNGIPRP | -0.153
55 | RRIRSRPPRLPRPRPRPKRWPRP | 0.71
56 | RRIRTRPPRLPRPRPRPALCPRP | -0.0776
57 | RRIRHRPPRLPRPRPRPQNVPRP | -0.0702
58 | RRIRPRPPRLPRPRPRPHFYPRP | -0.217
59 | RRIRKRPPRLPRPRPRPLFGPRP | 0.439
60 | RRIRSRPPRLPRPRPRPYHYPRP | -0.527
61 | RRIRARPPRLPRPRPRPDRHPRP | 0.0379
62 | RRIRYRPPRLPRPRPRPFMGPRP | -0.316
63 | RRIRGRPPRLPRPRPRPRMKPRP | 0.426
64 | RRIRMRPPRLPRPRPRPAPHPRP | 1.33
65 | RRIRDRPPRLPRPRPRPKVMPRP | -0.054
66 | RRIRYRPPRLPRPRPRPSKNPRP | -0.722
67 | RRIRFRPPRLPRPRPRPRDPPRP | 0.553
68 | RRIRARPPRLPRPRPRPLRTPRP | 0.541
69 | RRIRKRPPRLPRPRPRPVFRPRP | 0.278
70 | RRIRKRPPRLPRPRPRPTHAPRP | 0.505
71 | RRIRQRPPRLPRPRPRPPKNPRP | 0.29
72 | RRIRQRPPRLPRPRPRPPEEPRP | -0.00674
73 | RRIRFRPPRLPRPRPRPRTWPRP | 0.544
74 | RRIRQRPPRLPRPRPRPKVHPRP | -0.0859
75 | RRIRKRPPRLPRPRPRPKWIPRP | -0.111

Row | Sequence | shrunken log2 fold change
76 | RRIRNRPPRLPRPRPRPKILPRP | 0.0428
77 | RRIRSRPPRLPRPRPRPAKKPRP | 0.0292
78 | RRIRDRPPRLPRPRPRPGTFPRP | 0.00435
79 | RRIRRRPPRLPRPRPRPHTWPRP | 0.0615
80 | RRIRNRPPRLPRPRPRPASQPRP | 0.545
81 | RRIRTRPPRLPRPRPRPYIIPRP | -0.59
82 | RRIRDRPPRLPRPRPRPWTKPRP | 0.0467
83 | RRIRRRPPRLPRPRPRPASCPRP | 0.0969
84 | RRIRCRPPRLPRPRPRPRRGPRP | 0.392
85 | RRIRSRPPRLPRPRPRPMEAPRP | -0.00776
86 | RRIRIRPPRLPRPRPRPVREPRP | 0.201
87 | RRIRTRPPRLPRPRPRPQTAPRP | -0.0946
88 | RRIRARPPRLPRPRPRPNHIPRP | -0.8
89 | RRIRTRPPRLPRPRPRPFYVPRP | -0.45
90 | RRIRGRPPRLPRPRPRPEQWPRP | 0.346
91 | RRIRHRPPRLPRPRPRPCDFPRP | -0.0501
92 | RRIRARPPRLPRPRPRPEMQPRP | 1.66
93 | RRIRERPPRLPRPRPRPFRNPRP | -0.105
94 | RRIRCRPPRLPRPRPRPVTEPRP | -0.127
95 | RRIRIRPPRLPRPRPRPQICPRP | -0.0396
96 | RRIRRRPPRLPRPRPRPMEMPRP | -0.0817
97 | RRIRVRPPRLPRPRPRPLPIPRP | -0.398
98 | RRIRIRPPRLPRPRPRPIWIPRP | -0.269
99 | RRIRPRPPRLPRPRPRPILVPRP | -0.178
100 | RRIRNRPPRLPRPRPRPAKWPRP | 0.112

Row | Sequence | shrunken log2 fold change
101 | RRIRWRPPRLPRPRPRPYHTPRP | -0.816
102 | RRIRPRPPRLPRPRPRPTVTPRP | -0.0401
103 | RRIRYRPPRLPRPRPRPHSEPRP | -0.0168
104 | RRIRWRPPRLPRPRPRPMHNPRP | -0.218
105 | RRIRSRPPRLPRPRPRPYEMPRP | -0.234
106 | RRIRPRPPRLPRPRPRPVMEPRP | -0.101
107 | RRIRCRPPRLPRPRPRPNCDPRP | -0.233
108 | RRIRKRPPRLPRPRPRPNMCPRP | 0.0251
109 | RRIRPRPPRLPRPRPRPNHDPRP | -0.384
110 | RRIRDRPPRLPRPRPRPGKTPRP | -0.00088
111 | RRIRKRPPRLPRPRPRPTWNPRP | 0.197
112 | RRIRSRPPRLPRPRPRPERIPRP | -0.065
113 | RRIRIRPPRLPRPRPRPMYFPRP | -0.609
114 | RRIRCRPPRLPRPRPRPLFFPRP | -0.273
115 | RRIRQRPPRLPRPRPRPYRVPRP | -0.00926
116 | RRIRWRPPRLPRPRPRPMWNPRP | -0.0699
117 | RRIRFRPPRLPRPRPRPIVDPRP | -0.136
118 | RRIRDRPPRLPRPRPRPRRHPRP | 0.172
119 | RRIRTRPPRLPRPRPRPEYTPRP | -0.052
120 | RRIRMRPPRLPRPRPRPTIWPRP | 0.52
121 | RRIRHRPPRLPRPRPRPIFDPRP | -0.0378
122 | RRIRHRPPRLPRPRPRPGYMPRP | -0.49
123 | RRIRCRPPRLPRPRPRPWMCPRP | -0.851
124 | RRIRQRPPRLPRPRPRPKFQPRP | 0.022
125 | RRIRVRPPRLPRPRPRPMMNPRP | -0.28

Row | Sequence | shrunken log2 fold change
126 | RRIRDRPPRLPRPRPRPSDFPRP | 0.259
127 | RRIRFRPPRLPRPRPRPPSGPRP | 0.422
128 | RRIRSRPPRLPRPRPRPQERPRP | -0.0153
129 | RRIRCRPPRLPRPRPRPDMDPRP | -0.00476
130 | RRIRTRPPRLPRPRPRPSYRPRP | -0.271
131 | RRIRTRPPRLPRPRPRPYITPRP | -1.19
132 | RRIRFRPPRLPRPRPRPYVFPRP | -0.408
133 | RRIRCRPPRLPRPRPRPNYEPRP | -0.442
134 | RRIRPRPPRLPRPRPRPICPPRP | -0.17
135 | RRIRLRPPRLPRPRPRPNSLPRP | -0.101
136 | RRIRNRPPRLPRPRPRPDVKPRP | -0.412
137 | RRIRGRPPRLPRPRPRPINMPRP | -0.0846
138 | RRIRCRPPRLPRPRPRPKIQPRP | -0.156
139 | RRIRGRPPRLPRPRPRPRSRPRP | 0.368
140 | RRIRKRPPRLPRPRPRPNSPPRP | -0.027
141 | RRIRERPPRLPRPRPRPRMYPRP | -0.723
142 | RRIRNRPPRLPRPRPRPFILPRP | -0.634
143 | RRIRNRPPRLPRPRPRPANRPRP | -0.029
144 | RRIRARPPRLPRPRPRPNQMPRP | 0.143
145 | RRIRLRPPRLPRPRPRPWQMPRP | 0.123
146 | RRIRVRPPRLPRPRPRPSKEPRP | -0.263
147 | RRIRRRPPRLPRPRPRPWNLPRP | -0.269
148 | RRIRIRPPRLPRPRPRPWCFPRP | -0.596
149 | RRIRPRPPRLPRPRPRPFRYPRP | -0.0865
150 | RRIRSRPPRLPRPRPRPWTFPRP | -0.199
